The values below come from paper PMC8934645.

In the test the target is Cas9 from Streptococcus pyogenes (SpyCas9) (Streptococcus pyogenes) (UniProt Q99ZW2).

Regarding AcrIIA26 (natural protein), the in vitro DNA cleavage by SpyCas9 RNP (256 nM), Acr titrated 0-8192 nM: Acr concentration that inhibits SpyCas9 was > 2050 nM.

Consider AcrIIA27 (natural protein), for which the in vitro DNA cleavage by SpyCas9 RNP (256 nM), Acr titrated 0-8192 nM: Acr concentration that inhibits SpyCas9 is > 2050 nM.

As to AcrIIA28 (natural protein), the in vitro DNA cleavage by SpyCas9 RNP (256 nM), Acr titrated 0-8192 nM: Acr concentration that inhibits SpyCas9 came out at 512 nM.

The substance AcrIIA25.1 (natural protein) gave an in vitro DNA cleavage by SpyCas9 RNP (256 nM), Acr titrated 0-8192 nM: Acr concentration that inhibits SpyCas9 of 512 nM.

AcrIIA32.1 (natural protein) yielded an in vitro DNA cleavage by SpyCas9 RNP (256 nM), Acr titrated 0-8192 nM: Acr concentration that inhibits SpyCas9 of 512 nM.
